Reference: patent US8058240B2, “Biological active ligands of melanocortin receptors” (University of Florida Research Foundation, Inc., priority 2006, dated 2011)
Ends that are not written are not given here.

How the values were obtained:
[1] = biological target: T1, C271Y hMC4R (Homo sapiens, UniProt P32245, C271Y); experiment: cAMP based functional bioassay, agonist stimulation, stably transfected HEK-293 cells; type: cell-based
T1 construct: expressed in transfected cells

[2] = biological target: T2, L106P hMC4R (Homo sapiens, UniProt P32245, L106P); experiment: as above; type: cell-based; details: HEK293, L106P hMC4R, read-out: stimulation (maximal stimulation less than the forskolin control level)
T2 construct: expressed in transfected cells

[3] = biological target: T3, S58C hMC4R (Homo sapiens, UniProt P32245, S58C); experiment: as above; type: cell-based; details: S58C hMC4R as printed; at up to 10^−5 M concentrations
T3 construct: expressed in transfected cells

[4] = biological target: T4, G252S hMC4R (Homo sapiens, UniProt P32245, G252S); experiment: cAMP based functional bioassay, antagonist Schild analysis against agonist MTII; type: cell-based; details: ± SEM
T4 construct: expressed in transfected cells

[5] = biological target: T5, N97D hMC4R (Homo sapiens, UniProt P32245, N97D); experiment: as above; type: cell-based
T5 construct: expressed in transfected cells

[6] = biological target: T2, L106P hMC4R; experiment: as above; type: cell-based; details: ± SEM
[7] = biological target: T6, I102S hMC4R (Homo sapiens, UniProt P32245, I102S); experiment: as above; type: cell-based; details: ± SEM
T6 construct: expressed in transfected cells

[8] = biological target: T7, V253I hMC4R (Homo sapiens, UniProt P32245, V253I); experiment: as above; type: cell-based; details: ± SEM
T7 construct: expressed in transfected cells

[9] = biological target: T8, R165W hMC4R (Homo sapiens, UniProt P32245, R165W); experiment: as above; type: cell-based; details: ± SEM
T8 construct: expressed in transfected cells

[10] = biological target: T3, S58C hMC4R; experiment: as above; type: cell-based; details: ± SEM
[11] = biological target: T9, I301T hMC4R (Homo sapiens, UniProt P32245, I301T); experiment: as above; type: cell-based; details: ± SEM
T9 construct: expressed in transfected cells

[12] = biological target: T10, wild type (WT) hMC4R (Homo sapiens, UniProt P32245); experiment: as above; type: cell-based; details: ± SEM
T10 construct: expressed in transfected cells

[13] = biological target: T11, I137T hMC4R (Homo sapiens, UniProt P32245, I137T); experiment: as above; type: cell-based; details: ± SEM
T11 construct: expressed in transfected cells

[14] = biological target: T12, R165Q hMC4R (Homo sapiens, UniProt P32245, R165Q); experiment: as above; type: cell-based; details: ± SEM
T12 construct: expressed in transfected cells

[15] = biological target: T13, S127L hMC4R (Homo sapiens, UniProt P32245, S127L); experiment: as above; type: cell-based
T13 construct: expressed in transfected cells

[16] = biological target: T1, C271Y hMC4R; experiment: as above; type: cell-based; details: ± SEM
[17] = biological target: T14, T150I hMC4R (Homo sapiens, UniProt P32245, T150I); experiment: as above; type: cell-based; details: ± SEM
T14 construct: expressed in transfected cells

[18] = system: polymorphic hMC4Rs; experiment: cAMP based functional bioassay, summary statements for the polymorphic hMC4Rs as a group; type: cell-based, human
[19] = Schild analysis, agonist MTII, ± SEM

Question: With `CSCC[C@H](NC(=O)[C@H](CCCNC(=N)N)NC(=O)[C@H](Cc1ccc(O)cc1)NC(=O)[C@@H]1CCCN1C(=O)CNC(=O)[C@H](CCC(=O)O)NC(=O)[C@H](CC(=O)O)NC(=O)[C@H](CCCCN)NC(=O)[C@H](CCCCN)NC(=O)[C@H](CCC(=O)O)NC(=O)[C@H](C)N)C(=O)N[C@@H](CCC(=O)O)C(=O)N[C@@H](Cc1c[nH]cn1)C(=O)N[C@@H](Cc1ccccc1)C(=O)N[C@@H](CCCNC(=N)N)C(=O)N[C@@H](Cc1c[nH]c2ccccc12)C(=O)NCC(=O)N[C@@H](CO)C(=O)N1CCC[C@H]1C(=O)N1CCC[C@H]1C(=O)N[C@@H](CCCCN)C(=O)N[C@@H](CC(=O)O)C(=O)O` [β-MSH] as the molecule, how does the response stimulated ([1]; C271Y hMC4R) read?
Answer: Its response stimulated is “maximal response”.

Question: Which Emax at 1 µM [2] does the source give for SYSMEHFRWGKPVGKKRRPVKYPN [ACTH(1-24)] here?
Answer: Its Emax at 1 µM is 40 to 50%.

Question: What about the “ability to stimulate this receptor” value [3] of the same molecule?
Answer: The value was “inability”.

Question: And the Emax at 1 µM ([1]; HEK293, C271Y hMC4R, at 1 μM, read-out: stimulation (maximal stimulation less than the forskolin control level))?
Answer: Its Emax at 1 µM is 42 to 58%.

Question: “hAGRP(87-132): endogenous C-terminal antagonist agouti-related protein ligand, purchased from Peptides International” was tested. Which “Antagonist pA2” value [4] did it give?
Answer: Its value is 8.53 ± 0.02.

Question: What about the “antagonist potency relative to the wild type control” value [5] of the same molecule?
Answer: The value was “statistically significant decreased”.

Question: And the “Antagonist pA2” value [5, 19]?
Answer: The value was 7.44 ± 0.11.

Question: And the “Antagonist pA2” value [6]?
Answer: The value was 8.27 ± 0.12.

Question: What about the “Antagonist pA2” value [7] of the same molecule?
Answer: The value was 8.17 ± 0.10.

Question: And the “Antagonist pA2” value [8]?
Answer: The value was 8.41 ± 0.17.

Question: What about the “Antagonist pA2” value [9] of the same molecule?
Answer: Its value is 8.52 ± 0.17.

Question: And the “Antagonist pA2” value [10]?
Answer: Its value is 8.02 ± 0.13.

Question: And the “Antagonist pA2” value [11]?
Answer: The value was 8.60 ± 0.07.

Question: What about the “Antagonist pA2” value [12] of the same molecule?
Answer: The value was 8.28 ± 0.11.

Question: What about the “Antagonist pA2” value [13] of the same molecule?
Answer: Its value is 8.33 ± 0.12.

Question: What about the “Antagonist pA2” value [14] of the same molecule?
Answer: The value was 8.57 ± 0.06.

Question: What about the “antagonist potency relative to the wild type control” value [15] of the same molecule?
Answer: Its value is “statistically significant decreased”.

Question: What about the “Antagonist pA2” value [15, 19] of the same molecule?
Answer: Its value is 7.06 ± 0.16.

Question: What about the “Antagonist pA2” value [16] of the same molecule?
Answer: Its value is 8.45 ± 0.03.

Question: What about the “Antagonist pA2” value [17] of the same molecule?
Answer: Its value is 8.34 ± 0.06.

Question: Which results are given for `C[C@@H]1NC(=O)[C@H](CC(N)=O)NC(=O)[C@H](Cc2c[nH]c3ccccc23)NC(=O)[C@H](CCCNC(=N)N)NC(=O)[C@@H](Cc2ccccc2)NC(=O)[C@H](Cc2c[nH]cn2)NC(=O)[C@@H](NC(=O)[C@@H](N)Cc2ccc(O)cc2)CSSC[C@@H](C(=O)N[C@@H](Cc2ccc(O)cc2)C(N)=O)NC(=O)[C@H](Cc2ccccc2)NC1=O` [AMW3-130, Tyr-c[Cys-His-DPhe-Arg-Trp-Asn-Ala-Phe-Cys]-Tyr-NH2]?
Answer: agonist EC50 potency ([18]; at all these polymorphic hMC4Rs): sub nM to mM; agonist function at these hMC4Rs ([18]; eleven human MC4R polymorphisms): rescue
